Measurements taken from patent publication US9777041B2, “Protein nanofibers from self-assembling pentamers” (New York University, priority 2013, dated 2017).

Test: ATR-FTIR secondary structure of solid-state protein
Assay type: physicochemical
Conditions: for Random, percent composition / α helix, percent composition / β sheet, percent composition: 10 μM protein in 50 mM PB
Description: Attenuated Total Reflectance Fourier Transform Infrared Spectroscopy (ATR-FTIR): ATR-FTIR experiments were performed using Perkin Elmer System 2000 FT-IR with DuraSamplIR II T diamond ATR accessory and equipped with a MCT-A detector. Approximately, 5 μL of peptide solution (10 μM in 50 mM PB, pH 4, 8, and 10) was added on the diamond ATR surface. The spectrum (128 scans) was measured at room temperature over a range of 4000-400 cm^−1 with 0.5 cm^−1 resolution. PeakFit software was used to process the data, which involved a 2nd derivative zero baseline correction of the amide I region between 1700-1600 cm^−1 and deconvolution of peaks with a Gaussian function. All readings represent the average of two trials.
To quantifying the secondary structure of the protein in its solid-state, ATR-FTIR experiments were conducted to evaluate secondary structure of insoluble Q fibers at pH 4, 8, and 10 (Table 8). The frequency measured in the regions of the amide I and amide II absorptions of a protein correlate to the secondary structural motifs within the protein, and were thereby used to assess conformation of the protein in its solid-state (FIGS. 20a-20d). Secondary structure conformation based on ATR-FTIR data for Q in 50 mM PB at pH 4, 8, and 10, and in the presence of curcumin at a 5:1 molar ratio with Q at pH 4 are shown in […]. Percent composition was determined from relative areas of peaks fit to spectra (FIGS. 20a-20d).
Secondary structure conformation based on ATR-FTIR data for 10 μM protein in 50 mM PB before and after templation of AuNPs is provided in Table 10. Percent composition was determined from relative areas of peaks fit to spectra (see spectra FIGS. 37a-37d, FIGS. 38a-38d).

[1] = curcumin at 5:1 molar ratio, pH 4

Question: Which “Random, percent composition” value (+AuNP (after templation)) does the source give for “Q: Q54 protein, SEQ ID NO:2, variant of COMPcc; coiled-coil that self-assembles into homopentamers and nanofibers (MRGSHHHHHHGSIEGRVKEITFLKNTAPQMLRELQETNAALQDVRELLRQQSKL)” here?
Answer: 27%

Question: What about the “α helix, percent composition” value (+AuNP (after templation)) of the same substance?
Answer: 30%

Question: What about the “β sheet, percent composition” value (+AuNP (after templation)) of the same substance?
Answer: 43%

Question: And the “Random, percent composition” value (before templation of AuNPs)?
Answer: 0%

Question: And the “α helix, percent composition” value (before templation of AuNPs)?
Answer: 65%

Question: And the “β sheet, percent composition” value (before templation of AuNPs)?
Answer: 35%

Question: And the “α helix % composition” value [1]?
Answer: 79%

Question: What about the “β sheet % composition” value [1] of the same substance?
Answer: 10%

Question: And the “Random coil % composition” value (curcumin at 5:1 molar ratio, pH 4, 1640-1648 cm^−1)?
Answer: 12%

Question: And the “β sheet % composition” value (pH 4, 50 mM PB, 1625-1640, 1675-1695 cm^−1)?
Answer: 38%

Question: What about the “α helix % composition” value (pH 4, 50 mM PB, 1648-1660 cm^−1) of the same substance?
Answer: 62%

Question: And the “α helix % composition” value (pH 8, 50 mM PB)?
Answer: 63%

Question: What about the “β sheet % composition” value (pH 8, 50 mM PB) of the same substance?
Answer: 37%

Question: What about the “α helix % composition” value (pH 10, 50 mM PB) of the same substance?
Answer: 68%

Question: What about the “β sheet % composition” value (pH 10, 50 mM PB) of the same substance?
Answer: 32%
